The target in this series is StWRKY1 (Solanum tuberosum, UniProt Q9LEC7 1-172). As to the kind of experiment: EMSA; shift inhibited by excess unlabelled competitor; poly(dI-dC); EMSA: 20 ul with kit binding buffer (LightShift), 1 ul each of 1 ug/ul poly(dI-dC), 50% glycerol, 1% NP-40, 1 M KCl, 100 mM MgCl2, 200 mM EDTA; 3 ug protein, 20 fmol probe; 25 C, 20 min; pH not stated. The following applies: protein: recombinant; label: 3' biotin; blunt. For orientation: In EMSA bound probe runs differently from free probe, usually more slowly.
Sequence of StWRKY1 (Q9LEC7 entry or part of it): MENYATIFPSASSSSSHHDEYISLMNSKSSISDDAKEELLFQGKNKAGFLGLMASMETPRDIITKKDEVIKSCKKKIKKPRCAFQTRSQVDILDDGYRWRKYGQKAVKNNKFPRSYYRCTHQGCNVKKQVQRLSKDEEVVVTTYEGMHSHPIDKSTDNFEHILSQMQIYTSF

B1: THT promoter W1-box probe (dsDNA)
DNA 1: TCGTCAGAGTTGACCTCCACCAACCA
DNA 2: TGGTTGGTGGAGGTCAACTCTGACGA
As for B1, the binding result is “binds”.

The values above are taken from publication PMC4765800, “Transcription factor StWRKY1 regulates phenylpropanoid metabolites conferring late blight resistance in potato”.
